From patent publication US20250218531A1 (ABSCI, published 2025) come the findings set out here.

“And” between values parts separate entries of the source, which are not always exact repeats. Equal values may be shown once.

The target in the test is human epidermal growth factor receptor 2 (HER2) extracellular domain (human, UniProt P04626 23-629). Put plainly: SPR.

B1: Trastuzumab HCDR3 variant ARPSYDVGGDMLF (Fab, V domains shown)
VH: EVQLVESGGGLVQPGGSLRLSCAASGFNIKDTYIHWVRQAPGKGLEWVARIYPTNGYTRYADSVKGRFTISADTSKNTAYLQMNSLRAEDTAVYYCARPSYDVGGDMLFWGQGTLVTVSS
VL: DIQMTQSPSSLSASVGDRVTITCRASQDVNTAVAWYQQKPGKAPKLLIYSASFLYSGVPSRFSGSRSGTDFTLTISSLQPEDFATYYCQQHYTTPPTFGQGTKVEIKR
Take B1: the Kd (commonly the concentration at which binding is half-saturated) is 83.3 nM and 83.2 nM; the “log(KD (M))” value is -7.08 log(M).

B2: Trastuzumab HCDR3 variant ARTTSSIPSSFDY (Fab, V domains shown)
VH: EVQLVESGGGLVQPGGSLRLSCAASGFNIKDTYIHWVRQAPGKGLEWVARIYPTNGYTRYADSVKGRFTISADTSKNTAYLQMNSLRAEDTAVYYCARTTSSIPSSFDYWGQGTLVTVSS
VL: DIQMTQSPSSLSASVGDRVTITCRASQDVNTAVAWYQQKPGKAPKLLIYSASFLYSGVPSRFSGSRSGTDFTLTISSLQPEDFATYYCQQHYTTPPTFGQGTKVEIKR
In the case of B2, binding was put at a Kd of 149 nM and the “log(KD (M))” value is -6.83 log(M).

B3: Trastuzumab HCDR3 variant ARTVVGWYGRFDY (Fab, V domains shown)
VH: EVQLVESGGGLVQPGGSLRLSCAASGFNIKDTYIHWVRQAPGKGLEWVARIYPTNGYTRYADSVKGRFTISADTSKNTAYLQMNSLRAEDTAVYYCARTVVGWYGRFDYWGQGTLVTVSS
VL: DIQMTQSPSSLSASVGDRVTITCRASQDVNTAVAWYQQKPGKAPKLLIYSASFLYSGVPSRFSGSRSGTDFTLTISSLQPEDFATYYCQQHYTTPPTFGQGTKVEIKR
In the case of B3, the affinity, expressed as Kd, was 63.6 nM and the “log(KD (M))” value is -7.2 log(M).

B4: Trastuzumab HCDR3 variant ARSYAFLYGRMDY (Fab, V domains shown)
VH: EVQLVESGGGLVQPGGSLRLSCAASGFNIKDTYIHWVRQAPGKGLEWVARIYPTNGYTRYADSVKGRFTISADTSKNTAYLQMNSLRAEDTAVYYCARSYAFLYGRMDYWGQGTLVTVSS
VL: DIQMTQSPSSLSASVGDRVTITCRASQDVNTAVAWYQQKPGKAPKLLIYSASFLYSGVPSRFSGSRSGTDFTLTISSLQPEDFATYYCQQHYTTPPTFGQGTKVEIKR
For the molecule B4, the Kd was 189 nM and 188 nM; the “log(KD (M))” value was -6.72 log(M).

B5: Trastuzumab HCDR3 variant ARWERYGYYVLDV (Fab, V domains shown)
VH: EVQLVESGGGLVQPGGSLRLSCAASGFNIKDTYIHWVRQAPGKGLEWVARIYPTNGYTRYADSVKGRFTISADTSKNTAYLQMNSLRAEDTAVYYCARWERYGYYVLDVWGQGTLVTVSS
VL: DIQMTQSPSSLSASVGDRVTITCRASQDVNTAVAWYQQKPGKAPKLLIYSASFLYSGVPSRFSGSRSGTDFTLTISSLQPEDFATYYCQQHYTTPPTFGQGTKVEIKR
As to B5, the Kd stood at 27.9 nM and the “log(KD (M))” value was -7.55 log(M).

B6: Trastuzumab HCDR3 variant ARWARGAGYYWDY (Fab, V domains shown)
VH: EVQLVESGGGLVQPGGSLRLSCAASGFNIKDTYIHWVRQAPGKGLEWVARIYPTNGYTRYADSVKGRFTISADTSKNTAYLQMNSLRAEDTAVYYCARWARGAGYYWDYWGQGTLVTVSS
VL: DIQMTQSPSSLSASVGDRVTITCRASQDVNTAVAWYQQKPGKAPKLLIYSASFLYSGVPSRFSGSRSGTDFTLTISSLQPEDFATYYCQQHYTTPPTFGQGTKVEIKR
For B6, the Kd was 89.6 nM and the “log(KD (M))” value was -7.05 log(M).

B7: Trastuzumab HCDR3 variant ARSYFRFTGDFFY (Fab, V domains shown)
VH: EVQLVESGGGLVQPGGSLRLSCAASGFNIKDTYIHWVRQAPGKGLEWVARIYPTNGYTRYADSVKGRFTISADTSKNTAYLQMNSLRAEDTAVYYCARSYFRFTGDFFYWGQGTLVTVSS
VL: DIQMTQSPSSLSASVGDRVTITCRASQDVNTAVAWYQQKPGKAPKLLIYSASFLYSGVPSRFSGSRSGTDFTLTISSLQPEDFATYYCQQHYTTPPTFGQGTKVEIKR
On to B7, for which the Kd was 135 nM and the “log(KD (M))” value was -6.87 log(M).

B8: Trastuzumab HCDR3 variant ARSGYPGYGSFAY (Fab, V domains shown)
VH: EVQLVESGGGLVQPGGSLRLSCAASGFNIKDTYIHWVRQAPGKGLEWVARIYPTNGYTRYADSVKGRFTISADTSKNTAYLQMNSLRAEDTAVYYCARSGYPGYGSFAYWGQGTLVTVSS
VL: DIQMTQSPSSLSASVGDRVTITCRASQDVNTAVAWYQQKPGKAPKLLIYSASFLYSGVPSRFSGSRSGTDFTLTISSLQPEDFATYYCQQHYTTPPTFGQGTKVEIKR
With B8, the Kd was 60.7 nM and the “log(KD (M))” value was -7.22 log(M).

B9: Trastuzumab HCDR3 variant ARSYAYLYGSWDY (Fab, V domains shown)
VH: EVQLVESGGGLVQPGGSLRLSCAASGFNIKDTYIHWVRQAPGKGLEWVARIYPTNGYTRYADSVKGRFTISADTSKNTAYLQMNSLRAEDTAVYYCARSYAYLYGSWDYWGQGTLVTVSS
VL: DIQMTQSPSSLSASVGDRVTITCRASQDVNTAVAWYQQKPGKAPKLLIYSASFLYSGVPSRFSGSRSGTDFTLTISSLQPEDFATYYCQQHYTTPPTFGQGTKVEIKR
As for B9, the Kd is 102 nM and the “log(KD (M))” value was -6.99 log(M).

B10: Trastuzumab HCDR3 variant ARWEQASVGSFGY (Fab, V domains shown)
VH: EVQLVESGGGLVQPGGSLRLSCAASGFNIKDTYIHWVRQAPGKGLEWVARIYPTNGYTRYADSVKGRFTISADTSKNTAYLQMNSLRAEDTAVYYCARWEQASVGSFGYWGQGTLVTVSS
VL: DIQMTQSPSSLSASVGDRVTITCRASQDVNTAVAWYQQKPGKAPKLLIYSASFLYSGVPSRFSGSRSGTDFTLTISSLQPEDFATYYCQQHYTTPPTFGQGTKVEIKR
As to B10, the affinity, expressed as Kd, was 226 nM and the “log(KD (M))” value is -6.65 log(M).

B11: Trastuzumab HCDR3 variant ARWEGYGSYEFAY (Fab, V domains shown)
VH: EVQLVESGGGLVQPGGSLRLSCAASGFNIKDTYIHWVRQAPGKGLEWVARIYPTNGYTRYADSVKGRFTISADTSKNTAYLQMNSLRAEDTAVYYCARWEGYGSYEFAYWGQGTLVTVSS
VL: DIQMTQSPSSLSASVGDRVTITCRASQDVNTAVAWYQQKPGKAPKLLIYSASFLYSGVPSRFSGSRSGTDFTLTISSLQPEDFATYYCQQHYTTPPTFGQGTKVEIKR
For the molecule B11, the Kd amounted to 42.5 nM and the “log(KD (M))” value was -7.37 log(M).
